Data published in the supplement of paper PMC7125110.
± gives the standard error. For part of these data: This sample holds only a part of the variants without activity.

B1: glmS ribozyme (parent)
chain: AUAAAAGCGCCAGAACUACAGAAAUGUAGUUGACGAGGAGGAGGUUUAUCGAAUUUUCGGCGGAUGCCUCCAAA

How the values were obtained:
Settings in all cases: with glucosamine-6-phosphate
glucosamine-6-phosphate [1] = variants of: B1; test: kcat; higher = faster cleavage; RNA array
Summary of the method: (§1)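 A hybridised Cy3 probe tracked barcoded ribozyme variants, transcribed in situ by E. coli RNA polymerase on sequenced MiSeq chips, at 37 °C. The variants received 40 μM to 10 mM glucosamine-6-phosphate in HEPES/KCl/Mg(OAc)2 buffer. kobs came from decay fits and kcat and KM from weighted Michaelis–Menten fits.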

glucosamine-6-phosphate [2] = variants of: B1; test: self-cleavage kobs at 640 uM GlcN6P; higher = faster cleavage; RNA array
Summary of the method: as §1

glucosamine-6-phosphate [3] = variants of: B1; test: self-cleavage kobs at 2500 uM GlcN6P; higher = faster cleavage; RNA array
Summary of the method: as §1

glucosamine-6-phosphate [4] = variants of: B1; test: self-cleavage kobs at 10000 uM GlcN6P; higher = faster cleavage; RNA array
Summary of the method: as §1

glucosamine-6-phosphate [5] = variants of: B1; test: KM; higher = weaker cofactor use; RNA array
Summary of the method: as §1

glucosamine-6-phosphate [6] = variants of: B1; test: self-cleavage kobs at 40 uM GlcN6P; higher = faster cleavage; RNA array
Summary of the method: as §1

glucosamine-6-phosphate [7] = variants of: B1; test: self-cleavage kobs at 160 uM GlcN6P; higher = faster cleavage; RNA array
Summary of the method: as §1

Row | Variant | kcat (glucosamine-6-phosphate [1]) [s⁻¹] | self-cleavage kobs at 640 uM GlcN6P (glucosamine-6-phosphate [2]) [s⁻¹] | self-cleavage kobs at 2500 uM GlcN6P (glucosamine-6-phosphate [3]) [s⁻¹] | self-cleavage kobs at 10000 uM GlcN6P (glucosamine-6-phosphate [4]) [s⁻¹] | KM (glucosamine-6-phosphate [5]) [µM] | self-cleavage kobs at 40 uM GlcN6P (glucosamine-6-phosphate [6]) [s⁻¹] | self-cleavage kobs at 160 uM GlcN6P (glucosamine-6-phosphate [7]) [s⁻¹]
1 | U31G U65C | 0.000173 ± 5.1e-05 | 4.57e-05 ± 1.5e-05 | 6.33e-05 ± 1.4e-05 | 0.000136 ± 2e-05 | – | – | –
2 | U31C G66A | 0.00283 ± 0.00065 | 0.000724 ± 8.4e-05 | 0.00127 ± 0.00017 | 0.00266 ± 0.00027 | 2030 ± 750 | 6.95e-05 ± 9.4e-06 | 0.000128 ± 4.7e-05
3 | G32A A64C | 1.13e-05 ± 9e-07 | – | – | – | 1760 ± 490 | – | –
4 | U31C U54A | 0.00685 ± 0.0022 | 0.00122 ± 0.00019 | 0.00228 ± 0.00051 | 0.006 ± 0.00078 | 2980 ± 1300 | 0.000119 ± 1.5e-05 | 0.000268 ± 5.9e-05
5 | G32A U49A | < 1e-05 | – | – | – | – | – | –
6 | U31A G59U | 3.57e-05 ± 2.2e-06 | – | – | – | 2240 ± 490 | – | –
7 | U31C U55A | 0.00809 ± 0.0017 | 0.00126 ± 0.00017 | 0.00333 ± 0.00051 | 0.00623 ± 0.00059 | 3270 ± 1100 | 0.000152 ± 2.3e-05 | 0.000289 ± 6.8e-05
8 | G32U G41A | 0.000221 ± 1.2e-05 | 2.98e-05 ± 1.1e-05 | 7.3e-05 ± 1.5e-05 | 0.00015 ± 1.4e-05 | 4720 ± 590 | – | –
9 | U30G U46A G66C | 0.000292 ± 0.00014 | 6.55e-05 ± 2.5e-05 | 0.00038 ± 8.8e-05 | 0.000218 ± 5.4e-05 | – | – | –
10 | U31C U49G | 7.25e-05 ± 2.8e-06 | 2.25e-05 ± 9.3e-06 | 4.27e-05 ± 7.7e-06 | 6.33e-05 ± 9.1e-06 | 1610 ± 200 | – | –
11 | G32U U56A | 0.00196 ± 0.00014 | 0.000156 ± 2.9e-05 | 0.000494 ± 7.9e-05 | 0.0011 ± 9.2e-05 | 7730 ± 900 | – | 3.3e-05 ± 1.3e-05
12 | U31C C50A | < 1e-05 | – | – | – | – | < 1e-05 | –
13 | G32U C58A | 0.00151 ± 0.00022 | 0.000164 ± 1.4e-05 | 0.000495 ± 4.5e-05 | 0.00102 ± 8.8e-05 | 5030 ± 1000 | – | 6.77e-05 ± 1.3e-05
14 | G32U C58U | 0.000916 ± 0.0003 | 0.000118 ± 1.5e-05 | 0.000245 ± 3e-05 | 0.000655 ± 6.4e-05 | – | – | 6.06e-05 ± 1.7e-05
15 | U31A A52G C68A | 1.75e-05 ± 4.6e-06 | – | – | – | – | – | –
16 | A33C A39G | 0.0011 ± 0.0002 | 0.000138 ± 1.9e-05 | 0.000373 ± 9.9e-05 | 0.000722 ± 8.1e-05 | 5030 ± 1400 | – | –
17 | G32U G37A | 4.33e-05 ± 1.3e-05 | – | – | 3.21e-05 ± 6.6e-06 | – | – | –
18 | U31G A52U G62U C67G | < 1e-05 | – | < 1e-05 | < 1e-05 | – | < 1e-05 | –

Row | Variant | kcat (glucosamine-6-phosphate [1]) [s⁻¹] | self-cleavage kobs at 640 uM GlcN6P (glucosamine-6-phosphate [2]) [s⁻¹] | self-cleavage kobs at 2500 uM GlcN6P (glucosamine-6-phosphate [3]) [s⁻¹] | self-cleavage kobs at 10000 uM GlcN6P (glucosamine-6-phosphate [4]) [s⁻¹] | KM (glucosamine-6-phosphate [5]) [µM] | self-cleavage kobs at 40 uM GlcN6P (glucosamine-6-phosphate [6]) [s⁻¹] | self-cleavage kobs at 160 uM GlcN6P (glucosamine-6-phosphate [7]) [s⁻¹]
19 | U31A U69G | 5.26e-05 ± 7e-06 | 6.47e-05 ± 1.5e-05 | 5.62e-05 ± 1.2e-05 | 4.26e-05 ± 9.9e-06 | – | – | 4.7e-05 ± 1.3e-05
20 | U31A C58G G62C A64C C67A | 1.85e-05 ± 3.6e-06 | – | – | – | – | – | –
21 | A33C G66U | 2.18e-05 ± 4.2e-07 | – | – | – | 2420 ± 190 | < 1e-05 | –
22 | U31A U47G | 0.00294 ± 0.0012 | 0.00063 ± 0.00014 | 0.00264 ± 0.00082 | 0.00266 ± 0.00079 | – | 7.57e-05 ± 1.9e-05 | 0.000353 ± 7.9e-05
23 | U31C G40U | 0.000615 ± 0.00011 | 0.000122 ± 2.1e-05 | 0.000236 ± 4.1e-05 | 0.000515 ± 6.3e-05 | 2870 ± 920 | – | 4.05e-05 ± 1.4e-05
24 | G32U C68U | 0.000114 ± 5.5e-06 | 2.88e-05 ± 8.9e-06 | 7.28e-05 ± 6.1e-06 | 9.76e-05 ± 6.8e-06 | 1540 ± 250 | < 1e-05 | –
25 | U30G U56C | 0.00111 ± 0.00035 | 0.000359 ± 5.7e-05 | 0.000454 ± 8.9e-05 | 0.00109 ± 0.00017 | – | – | 7.46e-05 ± 1.8e-05
26 | U31C U69G | 3.99e-05 ± 1.4e-05 | – | 5.64e-05 ± 1.6e-05 | – | – | – | –
27 | A33C U54G | 0.00057 ± 0.00014 | 8.56e-05 ± 1.7e-05 | 0.000325 ± 3.8e-05 | 0.00043 ± 4.3e-05 | – | – | 8.91e-05 ± 2.6e-05
28 | U30G U54A | 0.0115 ± 0.0045 | 0.00201 ± 0.0004 | 0.00795 ± 0.0017 | 0.00853 ± 0.0011 | – | 0.000247 ± 3.2e-05 | 0.000384 ± 7.9e-05
29 | U31G G37C | 2.89e-05 ± 1.4e-06 | – | – | – | 1380 ± 340 | < 1e-05 | –
30 | U31G G41U | 0.000641 ± 0.00019 | 0.000154 ± 6.3e-05 | 0.000806 ± 0.00017 | 0.000505 ± 0.0001 | – | – | 6.71e-05 ± 1.8e-05
31 | U31A U55A | 0.0251 ± 0.0036 | 0.00452 ± 0.0014 | 0.00953 ± 0.0034 | 0.0182 ± 0.0035 | 3810 ± 790 | – | 0.000953 ± 0.00022
32 | U31A A33U | 2.01e-05 ± 3.8e-06 | – | – | – | – | < 1e-05 | –
33 | G32U U65G | 0.00128 ± 0.00061 | – | 2.49e-05 ± 1.1e-05 | 9.34e-05 ± 1.3e-05 | – | < 1e-05 | –
34 | U31C G40U U47A | 0.000144 ± 4.5e-05 | – | 0.000154 ± 4.5e-05 | 0.000116 ± 2.2e-05 | – | – | –
35 | A33C U55C | < 1e-05 | < 1e-05 | – | – | – | < 1e-05 | < 1e-05
